This note sets out measurements from article PMC5025757, “Sequences flanking the core-binding site modulate glucocorticoid receptor structure and activity”.

Data set [1] addresses T1, GR DBD wild type (rat, UniProt P06536 440-525). In words: EMSA; value only in figure; similar Kd for A/T and G/C flanks; EMSA: 20 mM Tris pH 7.5, 2 mM MgCl2, 1 mM EDTA, 10% glycerol, 0.3 mg/ml BSA, 4 mM DTT, 0.05 ug/ul dIdC, 1.25 nM DNA, 30 min; NMR: 20 mM Na phosphate, 100 mM NaCl, 1 mM DTT, pH 6.7, 5% D2O, imino titration at 25 C. As to conditions: protein: recombinant; chain copies: 2; label: Cy5 5' of strand 1; blunt.

Data set [2] deals with GR DBD A477T (dim mutant) (rat, UniProt P06536 440-525, A477T). The data set is described as follows: EMSA; affinity lower than wild type; EMSA: 20 mM Tris pH 7.5, 2 mM MgCl2, 1 mM EDTA, 10% glycerol, 0.3 mg/ml BSA, 4 mM DTT, 0.05 ug/ul dIdC, 1.25 nM DNA, 30 min; NMR: 20 mM Na phosphate, 100 mM NaCl, 1 mM DTT, pH 6.7, 5% D2O, imino titration at 25 C. The note with it: protein: recombinant; chain copies: 2; label: Cy5 5' of strand 1; blunt. (In general: A gel shift assay detects complexes by their altered migration in electrophoresis.)
Chain of GR DBD A477T (dim mutant) (P06536 440-525 A477T): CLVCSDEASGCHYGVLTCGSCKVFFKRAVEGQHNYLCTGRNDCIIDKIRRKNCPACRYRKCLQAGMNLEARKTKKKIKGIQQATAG

Data set [3] concerns the target T1, GR DBD wild type. The data set is described as follows: NMR (15N-HSQC); EMSA: 20 mM Tris pH 7.5, 2 mM MgCl2, 1 mM EDTA, 10% glycerol, 0.3 mg/ml BSA, 4 mM DTT, 0.05 ug/ul dIdC, 1.25 nM DNA, 30 min; NMR: 20 mM Na phosphate, 100 mM NaCl, 1 mM DTT, pH 6.7, 5% D2O, imino titration at 25 C. The note with it: protein: recombinant; chain copies: 2; blunt.
In data set [4] the target is T1, GR DBD wild type. The data set is described as follows: EMSA; value only in figure; slightly higher affinity than A/T; EMSA: 20 mM Tris pH 7.5, 2 mM MgCl2, 1 mM EDTA, 10% glycerol, 0.3 mg/ml BSA, 4 mM DTT, 0.05 ug/ul dIdC, 1.25 nM DNA, 30 min; NMR: 20 mM Na phosphate, 100 mM NaCl, 1 mM DTT, pH 6.7, 5% D2O, imino titration at 25 C. As to conditions: protein: recombinant; chain copies: 2; label: Cy5 5' of strand 1; blunt.

The target of data set [5] is T1, GR DBD wild type. The data set is described as follows: NMR (1D imino proton titration); G46 more broadened than with G/C; 25 C; EMSA: 20 mM Tris pH 7.5, 2 mM MgCl2, 1 mM EDTA, 10% glycerol, 0.3 mg/ml BSA, 4 mM DTT, 0.05 ug/ul dIdC, 1.25 nM DNA, 30 min; NMR: 20 mM Na phosphate, 100 mM NaCl, 1 mM DTT, pH 6.7, 5% D2O, imino titration at 25 C. The note with it: protein: recombinant; chain copies: 2; blunt.

Data set [6] deals with T1, GR DBD wild type. The data set is described as follows: NMR (1D imino proton titration); 25 C; EMSA: 20 mM Tris pH 7.5, 2 mM MgCl2, 1 mM EDTA, 10% glycerol, 0.3 mg/ml BSA, 4 mM DTT, 0.05 ug/ul dIdC, 1.25 nM DNA, 30 min; NMR: 20 mM Na phosphate, 100 mM NaCl, 1 mM DTT, pH 6.7, 5% D2O, imino titration at 25 C. As to conditions: protein: recombinant; chain copies: 2; blunt.

T1 sequence (P06536 440-525): as the sequence (P06536 440-525 A477T) above, with T38A counted along it

B1: A-Sgk-T EMSA (dsDNA)
DNA 1: ACCAAGAACATTTTGTCCGTCTC
DNA 2: GAGACGGACAAAATGTTCTTGGT
As to B1, in data set [1], the binding result is reported as “binds”.

B2: A-Cgt-T EMSA (dsDNA)
DNA 1: ACCAAGAACATTTTGTACGTCTC
DNA 2: GAGACGTACAAAATGTTCTTGGT
As to B2, in data set [2], the Kd – broadly, the concentration at which binding is half-saturated – worked out at 3.1 ± 0.4 µM. Moreover, the binding result in data set [1] is recorded as “binds”.

B3: Cgt A-C NMR (dsDNA)
DNA 1: GCCAAGAACATTTTGTACGCCTCG
DNA 2: CGAGGCGTACAAAATGTTCTTGGC
Regarding B3, in data set [3], the binding result is given as “binds”.

B4: G-Cgt-C EMSA (dsDNA)
DNA 1: ACCGAGAACATTTTGTACGCCTC
DNA 2: GAGGCGTACAAAATGTTCTCGGT
For the molecule B4, the Kd in data set [2] was determined as 3.5 ± 1.1 µM. The binding result in data set [4] was “binds”.

B5: G-Sgk-C EMSA (dsDNA)
DNA 1: ACCGAGAACATTTTGTCCGCCTC
DNA 2: GAGGCGGACAAAATGTTCTCGGT
For B5, in data set [1], the binding result is “binds”.

B6: Cgt A-T NMR (dsDNA)
DNA 1: GCCAAGAACATTTTGTACGTCTCG
DNA 2: CGAGACGTACAAAATGTTCTTGGC
B6: the binding result in data set [5] was “binds”.

B7: Cgt G-C NMR (dsDNA)
DNA 1: GCCGAGAACATTTTGTACGCCTCG
DNA 2: CGAGGCGTACAAAATGTTCTCGGC
On to B7, for which the binding result in data set [6] was “binds”.
